We go through 35 sequences from the Immune Epitope Database (IEDB).

The Kd is a measure of binding affinity in units of concentration. A high value points to weaker binding.

This test has as its target HLA-A*02:01. Briefly: IEDB peptide-MHC binding, purified MHC/direct/fluorescence; filed as Kd, often an IC50 or EC50 that approximates it; ≥ and ≤ were set here for values at or beyond the usual limits of such assays. As to conditions: source organism: Human immunodeficiency virus 1.
Sequence KSLYNTIATLY had a Kd of 20 nM. That is a double-digit nanomolar value. On to SLFNTVAVLY, for which the Kd was 5 nM. This Kd is about 4-fold lower than that of the sequence before. The same measure for RSLYNTVATL: 10 nM; for KSLFNTVAVL: 5 nM. As for RSLFNTIATLY, the Kd came out at 5 nM. This counts as single-digit nanomolar. RSLYNTVAVL: the Kd amounted to 5 nM. RSLYNTIATLY gave a Kd of 40 nM. For the sequence SLYNTIATLY, the Kd was found to be 5 nM. For KSLFNTIAVLY, the Kd turned out to be 5 nM. In turn, KSLYNTIATL yielded a Kd of 5 nM. KSLYNTVATL yielded a Kd of 10 nM. Sequence RSLYNTIAVLY came in with a Kd of 5 nM. RSLFNTVATL: the Kd is 5 nM. The value for KSLFNTIAVL was 5 nM. KSLFNTVATL registered a Kd of 5 nM. This lies in the single-digit nanomolar range. KSLYNTVATLY yielded a Kd of 5 nM. SLFNTVATLY registered a Kd of 5 nM. For the sequence RSLYNTIAVL, the Kd is 5 nM.

Sequence RSLFNTVAVLY showed a Kd of 5 nM. As to SLFNTIATLY, the Kd worked out at 5 nM. The sequence KSLFNTVATLY displayed a Kd of 5 nM. The value for KSLYNTVAVL was 5 nM; that for SLFNTIAVLY was 5 nM. KSLYNTIAVL showed a Kd of 5 nM.

The sequence RSLFNTIAVLY displayed a Kd of 5 nM. The value for KSLFNTIATLY was 5 nM; that for SLYNTIAVLY was 5 nM. Sequence KSLFNTIATL came in with a Kd of 5 nM. RSLFNTIAVL: the Kd stood at 5 nM. The value for KSLYNTVAVLY was 5 nM. The same measure for SLYNTVAVLY: 5 nM; for RSLYNTIATL: 10 nM; for RSLYNTVATLY: 10 nM. The value for RSLYNTVAVLY was 10 nM. RSLFNTVAVL yielded a Kd of 10 nM. This counts as double-digit nanomolar.
